{
  "source": "patent US20250276076A1",
  "about": "“ANTI-ALPP/ALPPL2 ANTIBODIES AND ANTIBODY-DRUG CONJUGATES” (SEAGEN INC., priority 2021, published 2025)",
  "molecules": {"B1": {"name": "12F3: murine anti-ALPP/ALPPL2 monoclonal antibody selected for humanization (antibody, V domains shown)", "VH": "EVKLVESGGGLVQPGGSLSLSCAASGFTFTDYYMSWVRQPPGKALEWLALIRNKATGYTTEYSASVKGRFTISRDNSQSILYLQMNALRAEDSATYYCARASFYYDGKVLAYWGQGTLVTVSA", "VL": "DTQMTQSPSSLSASLGGKVTITCKASQDINKYIAWYQYKTGKGPRLLIHYTSTLQPGIPSRFSGSGSGRDYSFSISNLEPEDIATYYCLQYDNLYTFGGGTKLEIK"}},
  "tested_on": "ALPP/ALPPL2-expressing HEK293 cells",
  "test": "Flow cytometry and saturation binding of mouse antibodies",
  "parameters": "species or system human",
  "conditions": "flow cytometry",
  "procedure": "Cynomolgus ALPP, human ALPP, ALPPL2, ALPI and ALPL-expressing HEK293 cells were used to evaluate specificity and binding affinity. Briefly, one hundred thousand target-expressing HEK293 cells were transferred to 96-well plates. Cells were pelleted by centrifugation and resuspended in 100 μL of PBS+2% w/v BSA. After blocking, cells were resuspended in PBS+2% w/v BSA with unlabeled monoclonal anti-ALPP/ALPPL2 antibodies ranging in concentration from 8 pM to 666 nM and incubated on ice for 30 minutes. Cells were washed twice in PBS and resuspended in R-PE labeled secondary goat anti-human or anti-mouse antibodies (Jackson Immunoresearch, West Grove, PA) for 30 minutes on ice. Specificity of monoclonal antibodies for human and cynomolgus ALPP and ALPPL2, but not other members of this alkaline phosphatase family was confirmed by flow cytometry. Fluorescence was analyzed using an Attune NxT flow cytometer, and the percent of saturated fluorescent signal was used to determine percent bound and to subsequently calculate apparent KD.",
  "data": [
    {"molecule": "B1", "values": [
      {"measurement": "saturation levels for ALPP", "result": "higher saturation levels for ALPP than SG84-1F7"}
    ]}
  ]
}
